Measured values published in PMC2683204.

Biological target: Fluorescein-maleamide labeled purified FN (UniProt P02751)
Assay: SDS-PAGE, non-reducing against reducing

## Fluorescein-maleamide labeled purified FN (from UniProt P02751 32-2477) (natural protein)
  stoichiometry N: 2
